{"source": "paper PMC5928183", "about": "“A Role for the Non-Receptor Tyrosine Kinase Abl2/Arg in Experimental Neuroinflammation” (Journal of Neuroimmune Pharmacology, 2018)", "molecular_target": "actin filaments (F-actin) from chicken skeletal muscle (chicken, UniProt P68139 1-377)", "assay": "co-sedimentation; increasing amounts of Arg/Arg V1030M incubated with 1 μM actin filaments; 40 mM Hepes pH 7.25, 150 mM KCl, 2 mM MgCl2, 0.01% NP40, 4.5% glycerol; supernatant and pellet on SDS-PAGE, Coomassie R250 and densitometry; three trials", "settings": "both partners purified"}
{"binder": "Arg (Abl2/Arg non-receptor tyrosine kinase), valine at position 1030 (enzyme, SNP rs30466582); neither tags nor construct limits are stated here; also called Arg_1030V; Abelson related gene; source: Hi5 cells via baculoviral vectors, purified as previously described (Wang et al., 2001)) MGQQVGRVGEAPGLQQPQPRGIRGSSAARPSGRRRDPAGRTADAGFNVFTQHDHFASCVEDGFEGDKTGGSSPEVLHRPFGCDAESQALNEAIRWSSKENLLGATESDPNLFVALYDFVASGDNTLSITKGEKLRVLGYNQNGEWSEVRSKNGQGWVPSNYITPVNSLEKHSWYHGPVSRSAAEYLLSSLINGSFLVRESESSPGQLSISLRYEGRVYHYRINTTTDSKVYVTAESRFSTLAELVHHHSTVADGLVTTLHYPAPKCNKPTVYGVSPIHDKWEMERTDITMKHKLGGGQYGEVYVGVWKKYSLTVAVKTFKEDTMEVEEFLKEAAVMKEIKHPNLVQLLGVCTLEPPFYIVTEYMPYGNLLDYLRECSREEVTAVVLLYMATQISSAMEYLEKKNFIHRDLAARNCLVGENHVVKVADFGLSRLMTGDTYTAHAGAKFPIKWTAPESLAYNTFSIKSDVWAFGVLLWEIATYGMSPYPGIDLSQVYDLLEKGYRMEQPEGCPPKVYELMRACWKWSPADRPSFAETHQAFETMFHDSSISEEVAEELGRTASSSSVVPYLPRLPLLPSKTRTLRKQGENKENLDGGLDAAESLASSSAPAGFIRSTQASSGSPALPRKQRDKSPSSLLEDAKETCFTRDRKGGFFSSFMKKRNAPTPPKRSSSFREMENQPHKKYELTGNFSPVASLQNADGFSVAPSQQEPNLVPAKCYGGSFAQRNLCADDDSGGGGGSGTAGGGWSGITGFFTPRLIKKTLGLRAGKPTASDDTSKPFPRSNSTSSMSSGLPEQDRMAMTLPRNCQRSKLQLERTVSTSSQPEENVDRANDMLPKKSEEGAAPARERPKAKLLPRGATALPLRAPDPAITESDSPGVGVAGVAAAPKGKERNGGTRLGVAGVPEDGEQLGWSSPAKAVAVLPTTHNHKVPVLISPTLKHTPADVQLIGTDSQGNKFKLLSEHQVTSSGDKDRPRRVKPKCAPPPPPVMRLLQHPSTCSDPEEEPTAPPAGQHTPETQEGGKKAAPGPVPSSGKPGRPVMPPPQVPLPTSSISPAKMANGTAGTKVALRKTKQAAEKISADKISKEALLECADLLSSAITEPVPNSQLVDTGHQLLDYCSGYVDSIPQTRNKFAFREAVSKLELSLQELQVSSTAAGVPGTNPVLNNLLSCVQEISDVVQR", "values": [{"measurement": "Kd", "result": "710 ± 500", "unit": "nM"}]}
{"binder": "Arg V1030M (enzyme, SNP rs30466582); neither tags nor construct limits are stated here; also called Arg_1030M; source: Hi5 cells via baculoviral vectors, purified as previously described (Wang et al., 2001)) MGQQVGRVGEAPGLQQPQPRGIRGSSAARPSGRRRDPAGRTADAGFNVFTQHDHFASCVEDGFEGDKTGGSSPEVLHRPFGCDAESQALNEAIRWSSKENLLGATESDPNLFVALYDFVASGDNTLSITKGEKLRVLGYNQNGEWSEVRSKNGQGWVPSNYITPVNSLEKHSWYHGPVSRSAAEYLLSSLINGSFLVRESESSPGQLSISLRYEGRVYHYRINTTTDSKVYVTAESRFSTLAELVHHHSTVADGLVTTLHYPAPKCNKPTVYGVSPIHDKWEMERTDITMKHKLGGGQYGEVYVGVWKKYSLTVAVKTFKEDTMEVEEFLKEAAVMKEIKHPNLVQLLGVCTLEPPFYIVTEYMPYGNLLDYLRECSREEVTAVVLLYMATQISSAMEYLEKKNFIHRDLAARNCLVGENHVVKVADFGLSRLMTGDTYTAHAGAKFPIKWTAPESLAYNTFSIKSDVWAFGVLLWEIATYGMSPYPGIDLSQVYDLLEKGYRMEQPEGCPPKVYELMRACWKWSPADRPSFAETHQAFETMFHDSSISEEVAEELGRTASSSSVVPYLPRLPLLPSKTRTLRKQGENKENLDGGLDAAESLASSSAPAGFIRSTQASSGSPALPRKQRDKSPSSLLEDAKETCFTRDRKGGFFSSFMKKRNAPTPPKRSSSFREMENQPHKKYELTGNFSPVASLQNADGFSVAPSQQEPNLVPAKCYGGSFAQRNLCADDDSGGGGGSGTAGGGWSGITGFFTPRLIKKTLGLRAGKPTASDDTSKPFPRSNSTSSMSSGLPEQDRMAMTLPRNCQRSKLQLERTVSTSSQPEENVDRANDMLPKKSEEGAAPARERPKAKLLPRGATALPLRAPDPAITESDSPGVGVAGVAAAPKGKERNGGTRLGVAGVPEDGEQLGWSSPAKAVAVLPTTHNHKVPVLISPTLKHTPADVQLIGTDSQGNKFKLLSEHQVTSSGDKDRPRRVKPKCAPPPPPVMRLLQHPSTCSDPEEEPTAPPAGQHTPETQEGGKKAAPGPMPSSGKPGRPVMPPPQVPLPTSSISPAKMANGTAGTKVALRKTKQAAEKISADKISKEALLECADLLSSAITEPVPNSQLVDTGHQLLDYCSGYVDSIPQTRNKFAFREAVSKLELSLQELQVSSTAAGVPGTNPVLNNLLSCVQEISDVVQR", "values": [{"measurement": "Kd", "result": "860 ± 640", "unit": "nM"}]}
